Measurements reported in article PMC6510891, “Functional duplication of Rap1 in methylotrophic yeasts”.

Tests used:
HpRap1B [1] = target: T1, HpRap1B (Hansenula polymorpha DL-1, UniProt W1QDN2 1-576); assay: SPR; kinetic fit; equilibrium Kd 11±1; SPR: 10 mM HEPES-NaOH pH 7.5, 150 mM NaCl, 0.5 mM DTT, 0.05% Tween 20, 1 mg/ml BSA, 0.02 mg/ml salmon sperm DNA; competition 2 nM protein with 20 or 200 nM competitor. EMSA: 20 mM HEPES-NaOH pH 7.5, 50 mM NaCl, 0.2 mg/ml BSA, 5% glycerol, 0.1 mg/ml salmon sperm DNA, room temperature; settings: protein: recombinant; 3' overhang 20 nt on strand 2
T1 sequence: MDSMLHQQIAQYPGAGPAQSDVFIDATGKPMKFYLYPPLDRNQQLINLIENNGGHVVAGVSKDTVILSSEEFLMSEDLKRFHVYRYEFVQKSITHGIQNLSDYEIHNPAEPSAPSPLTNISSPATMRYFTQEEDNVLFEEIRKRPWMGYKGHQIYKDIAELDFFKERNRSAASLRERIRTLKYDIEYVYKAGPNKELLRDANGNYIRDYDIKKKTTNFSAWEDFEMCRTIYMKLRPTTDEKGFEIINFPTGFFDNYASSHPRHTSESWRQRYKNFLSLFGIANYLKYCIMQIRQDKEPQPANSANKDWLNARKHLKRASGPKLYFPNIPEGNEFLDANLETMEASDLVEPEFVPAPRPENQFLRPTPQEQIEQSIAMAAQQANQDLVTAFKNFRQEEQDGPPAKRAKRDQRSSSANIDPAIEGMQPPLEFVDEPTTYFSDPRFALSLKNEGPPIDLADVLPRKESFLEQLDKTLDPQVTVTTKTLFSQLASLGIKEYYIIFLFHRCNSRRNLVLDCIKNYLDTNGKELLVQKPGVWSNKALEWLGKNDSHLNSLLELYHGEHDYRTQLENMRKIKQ

HpRap1A [2] = target: T2, HpRap1A (Hansenula polymorpha DL-1, UniProt W1Q7Z6 1-613); assay: SPR; SPR: 10 mM HEPES-NaOH pH 7.5, 150 mM NaCl, 0.5 mM DTT, 0.05% Tween 20, 1 mg/ml BSA, 0.02 mg/ml salmon sperm DNA; competition 2 nM protein with 20 or 200 nM competitor. EMSA: 20 mM HEPES-NaOH pH 7.5, 50 mM NaCl, 0.2 mg/ml BSA, 5% glycerol, 0.1 mg/ml salmon sperm DNA, room temperature; settings: protein: recombinant; 3' overhang 20 nt on strand 2
T2 sequence: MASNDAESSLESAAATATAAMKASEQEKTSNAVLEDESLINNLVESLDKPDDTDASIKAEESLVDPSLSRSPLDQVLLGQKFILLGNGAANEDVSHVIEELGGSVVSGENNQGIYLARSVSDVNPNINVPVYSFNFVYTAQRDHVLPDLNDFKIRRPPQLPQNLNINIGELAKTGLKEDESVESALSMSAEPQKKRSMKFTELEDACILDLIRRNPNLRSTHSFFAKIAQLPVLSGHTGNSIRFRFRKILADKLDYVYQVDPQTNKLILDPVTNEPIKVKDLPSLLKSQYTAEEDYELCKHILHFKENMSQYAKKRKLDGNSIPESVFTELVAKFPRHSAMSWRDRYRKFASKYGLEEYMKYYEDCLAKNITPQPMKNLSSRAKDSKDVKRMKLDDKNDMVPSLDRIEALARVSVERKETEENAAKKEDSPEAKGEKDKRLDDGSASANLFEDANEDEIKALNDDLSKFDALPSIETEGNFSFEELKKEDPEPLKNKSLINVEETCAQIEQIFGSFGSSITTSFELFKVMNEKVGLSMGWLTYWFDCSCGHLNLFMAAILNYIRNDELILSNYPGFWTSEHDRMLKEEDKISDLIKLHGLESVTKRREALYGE

HpRap1A [3] = target: T2, HpRap1A; assay: EMSA; up to 250 nM protein, 50 nM DNA; SPR: 10 mM HEPES-NaOH pH 7.5, 150 mM NaCl, 0.5 mM DTT, 0.05% Tween 20, 1 mg/ml BSA, 0.02 mg/ml salmon sperm DNA; competition 2 nM protein with 20 or 200 nM competitor. EMSA: 20 mM HEPES-NaOH pH 7.5, 50 mM NaCl, 0.2 mg/ml BSA, 5% glycerol, 0.1 mg/ml salmon sperm DNA, room temperature; settings: protein: recombinant; label: 5' FAM on strand 1; blunt
HpRap1B [4] = target: T1, HpRap1B; assay: as above; settings: protein: recombinant; label: 5' FAM on strand 1; blunt
HpRap1B [5] = target: T1, HpRap1B; assay: SPR; kinetic fit; equilibrium Kd 13±3; SPR: 10 mM HEPES-NaOH pH 7.5, 150 mM NaCl, 0.5 mM DTT, 0.05% Tween 20, 1 mg/ml BSA, 0.02 mg/ml salmon sperm DNA; competition 2 nM protein with 20 or 200 nM competitor. EMSA: 20 mM HEPES-NaOH pH 7.5, 50 mM NaCl, 0.2 mg/ml BSA, 5% glycerol, 0.1 mg/ml salmon sperm DNA, room temperature; settings: protein: recombinant; 3' overhang 20 nt on strand 2

B1: HANPO2 (SPR) (dsDNA)
DNA 1: GGGTGGCGGGGTGGCG
DNA 2: CGCCACCCCGCCACCCCCTCTACGTCCTCCTGCTCC
Kd (HpRap1B [1]): 12 ± 1 nM
binding result (HpRap1A [2]): no binding

B2: FAM-HANPO2 (dsDNA)
DNA 1: GGGTGGCGGGGTGGCG
DNA 2: CGCCACCCCGCCACCC
binding result (HpRap1A [3]): no binding
binding result (HpRap1B [4]): binds

B3: HANPO4 (SPR) (dsDNA)
DNA 1: GGGTGGCGGGGTGGCGGGGTGGCGGGGTGGCG
DNA 2: CGCCACCCCGCCACCCCGCCACCCCGCCACCCCCTCTACGTCCTCCTGCTCC
Kd (HpRap1B [5]): 12 ± 3 nM
